What was measured:
[1] = target: metabolic amylin receptor
[2] = target: high affinity CGRP receptor
[3] = target: high affinity CGRP receptor; remark: listed apart in the source
[4] = target: metabolic amylin receptor; remark: listed apart in the source
[5] = target: high affinity CGRP receptor; remark: listed apart in the source
[6] = target: metabolic amylin receptor; remark: listed apart in the source

| EC50, ^14C-glucose incorporation into glycogen, with insulin (23.7 nM) [1] [nM] | EC50, ^14C-glucose incorporation into glycogen, without insulin [1] [nM] | EC50, total glycogen content, without insulin [1] [nM] | NEFA content of soleus muscle from high fat-fed rats, EC50 [2] [nM] | decrease in intramuscular triglyceride of soleus muscle from high fat-fed rats, EC50 [2] [nM] | lipolysis in skeletal muscle, EC50 as summed up in the description [3] [nM] | free fatty acid content in incubated rat soleus muscle, EC50 of the second phase [4] [nM] | free fatty acid content in incubated rat soleus muscle, EC50 of the first phase [5] [nM] | free fatty acid content in incubated rat soleus muscle, EC50 [6] [nM] | Substance |
| --- | --- | --- | --- | --- | --- | --- | --- | --- | --- |
| 0.7 | 3.1 | 3.2 | 0.0007 | 0.00025 | 0.00026 | 45 | 0.00025 | – | rat CGRP-1 (ligand) |
| – | – | 8 | – | – | – | – | – | 7.8 | rat amylin (from UniProt P12969) (ligand) |
